Assay results reported in paper doi:10.1101/2024.07.12.603331.

Biological target: HAstV8 spike protein VP25 (residues S484 to R708) (human astrovirus 8 (HAstV8))
Test: BLI

Chain of neonatal Fc receptor (FcRn), recombinant ectodomains (P55899 24-297): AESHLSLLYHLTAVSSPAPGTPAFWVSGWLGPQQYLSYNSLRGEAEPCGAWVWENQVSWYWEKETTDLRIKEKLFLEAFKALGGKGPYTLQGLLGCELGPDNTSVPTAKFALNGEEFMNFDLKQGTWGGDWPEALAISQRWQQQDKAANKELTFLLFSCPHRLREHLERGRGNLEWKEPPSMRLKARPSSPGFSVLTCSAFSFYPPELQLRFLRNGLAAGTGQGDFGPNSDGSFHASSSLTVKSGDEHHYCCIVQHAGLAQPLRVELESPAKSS
Chain of neonatal Fc receptor (FcRn), recombinant ectodomains (P61769 21-119): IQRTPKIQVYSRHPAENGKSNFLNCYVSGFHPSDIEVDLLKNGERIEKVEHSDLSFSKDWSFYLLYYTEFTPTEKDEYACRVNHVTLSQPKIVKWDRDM
Chain of HAstV8 spike protein VP25 (residues S484 to R708) (human astrovirus 8 (HAstV8)) (Q9IFX1 424-648 limits assumed): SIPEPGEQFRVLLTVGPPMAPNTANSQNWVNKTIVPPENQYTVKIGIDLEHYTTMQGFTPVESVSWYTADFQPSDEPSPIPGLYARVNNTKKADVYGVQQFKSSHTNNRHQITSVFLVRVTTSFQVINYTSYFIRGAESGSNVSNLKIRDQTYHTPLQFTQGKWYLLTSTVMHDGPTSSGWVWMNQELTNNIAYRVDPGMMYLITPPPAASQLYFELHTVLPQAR

**Q.** Which results are given for “neonatal Fc receptor (FcRn), recombinant ectodomains (from UniProt P55899;P61769) (complex)”?
**A.** Kd: 623 nM; half-life: 4.68 s
